From patent US20240109937A1 (Johns Hopkins, published 2024)
Bridge positions count the residues as written; N and C are the ends. Square brackets hold non-standard residues; d marks the D form. Ends that are not written are not given here. Lys(N3) = [N-]=[N+]=NCCCC[C@H](N)C(=O)O; hArg = N=C(N)NCCCC[C@H](N)C(=O)O; Tle = CC(C)(C)[C@H](N)C(=O)O; Hpra = C#CCC[C@H](N)C(=O)O; Nle = CCCC[C@H](N)C(=O)O

B1: Cyclic peptide derived from Formula (I), X5-X6: L-L (peptide)
peptide: CIKLKLLRKVC
modifications: disulfide 1-11
B2: Cyclic peptide derived from Formula (I), X5-X6: Tle-L (peptide)
peptide: CIKLK[Tle]LRKVC
modifications: disulfide 1-11
notes: X stands for the non-natural residue
B3: Cyclic peptide derived from Formula (I), X5-X6: L- Tle (peptide)
peptide: CIKLKL[Tle]RKVC
modifications: disulfide 1-11
notes: as for B2
B4: Cyclic peptide derived from Formula (I), X5-X6: Tle-Tle (peptide)
peptide: CIKLK[Tle][Tle]RKVC
modifications: disulfide 1-11
notes: as for B2
B5: AIF (381-389) LLox (peptide)
peptide: Ac-CIKLKLLRKVC-NH2
modifications: disulfide 1-11
SMILES: CC[C@H](C)[C@@H]1NC(=O)[C@@H](NC(C)=O)CSSC[C@@H](C(N)=O)NC(=O)[C@H](C(C)C)NC(=O)[C@H](CCCCN)NC(=O)[C@H](CCCNC(=N)N)NC(=O)[C@H](CC(C)C)NC(=O)[C@H](CC(C)C)NC(=O)[C@H](CCCCN)NC(=O)[C@H](CC(C)C)NC(=O)[C@H](CCCCN)NC1=O
B6: Cyclic peptide derived from Formula (I), X5-X6: I-I (peptide)
peptide: CIKLKIIRKVC
modifications: disulfide 1-11
B7: Cyclic peptide derived from Formula (I), X5-X6: I-L (peptide)
peptide: CIKLKILRKVC
modifications: disulfide 1-11
B8: Cyclic peptide derived from Formula (I), X5-X6: L-I (peptide)
peptide: CIKLKLIRKVC
modifications: disulfide 1-11
B9: Cyclic peptide derived from Formula (I), X5-X6: L-V (peptide)
peptide: CIKLKLVRKVC
modifications: disulfide 1-11
B10: Cyclic peptide derived from Formula (I), X5-X6: V-L (peptide)
peptide: CIKLKVLRKVC
modifications: disulfide 1-11
B11: Cyclic peptide derived from Formula (I), X5-X6: V-V (peptide)
peptide: CIKLKVVRKVC
modifications: disulfide 1-11
B12: AIF (370-394) (peptide)
peptide: Ac-QSVGVSSGKLLIKLKDGRKVETDHI-NH2
notes: also called AIF mimetic peptide (amino acids 370-394)
B13: Cyclic peptide derived from Formula (I), X5-X6: Nle -L (peptide)
peptide: CIKLK[Nle]LRKVC
modifications: disulfide 1-11
notes: as for B2
B14: Cyclic peptide derived from Formula (I), X5-X6: L- Nle (peptide)
peptide: CIKLKL[Nle]RKVC
modifications: disulfide 1-11
notes: as for B2
B15: Cyclic peptide derived from Formula (I), X5-X6: Nle-Nle (peptide)
peptide: CIKLK[Nle][Nle]RKVC
modifications: disulfide 1-11
notes: as for B2
B16: AIF (370-394)-stapled peptides (peptide)
peptide: Ac-QSCGVSSG[Lys(N3)]LLCKLKDGRKV[Hpra]TDHI-NH2
modifications: disulfide 3-12; triazole 9-21
notes: also called stapled AIF (370-394) analog
B17: CypA (55-69) (peptide)
peptide: Ac-RIIPGFMCQGGDFTR-NH2
B18: AIF (381-389) ox (peptide)
peptide: Ac-CIKLKDGRKVC-NH2
modifications: disulfide 1-11
SMILES: CC[C@H](C)[C@@H]1NC(=O)[C@@H](NC(C)=O)CSSC[C@@H](C(N)=O)NC(=O)[C@H](C(C)C)NC(=O)[C@H](CCCCN)NC(=O)[C@H](CCCNC(=N)N)NC(=O)CNC(=O)[C@H](CC(=O)O)NC(=O)[C@H](CCCCN)NC(=O)[C@H](CC(C)C)NC(=O)[C@H](CCCCN)NC1=O
B19: Cyclic peptide derived from Formula (I), X2: hR (peptide)
peptide: CI[hArg]LKDGRKVC
modifications: disulfide 1-11; also: Y1 can be H (free N-terminus), Y2 can be amino (C-terminal amide)
notes: Only the changed residues are printed; X stands for the non-natural residue

How the values were obtained:
[1] = molecular target: T1, Peptidylprolyl isomerase A (PPIA), also known as cyclophilin A (CypA) (UniProt P62937 1-165); experiment: KD 'determined', method not stated; target not given, taken as CypA
T1 construct: Protein used for the in vitro KD/IC50 values

[2] = molecular target: T1, Peptidylprolyl isomerase A (PPIA), also …; experiment: printed as 'disrupts the complex AIF/Cyclophilin with a KD'; method not stated
[3] = molecular target: T1, Peptidylprolyl isomerase A (PPIA), also …; experiment: binding to CypA; method not stated
[4] = molecular target: T1, Peptidylprolyl isomerase A (PPIA), also …; experiment: disruption of the AIF/Cyclophilin complex in living cells and in vitro; method not stated
[5] = molecular target: T1, Peptidylprolyl isomerase A (PPIA), also …; experiment: printed as 'Disrupts the complex AIF/Cyclophilin with a KD'; method not stated
[6] = molecular target: Apoptosis-inducing factor (AIF) protein (UniProt O95831 122-613, limits assumed); experiment: printed as 'Disrupts the complex AIF/Cyclophilin with a KD'; method not stated; target taken as AIF
Sequence of Apoptosis-inducing factor (AIF) protein (O95831 122-613 limits assumed): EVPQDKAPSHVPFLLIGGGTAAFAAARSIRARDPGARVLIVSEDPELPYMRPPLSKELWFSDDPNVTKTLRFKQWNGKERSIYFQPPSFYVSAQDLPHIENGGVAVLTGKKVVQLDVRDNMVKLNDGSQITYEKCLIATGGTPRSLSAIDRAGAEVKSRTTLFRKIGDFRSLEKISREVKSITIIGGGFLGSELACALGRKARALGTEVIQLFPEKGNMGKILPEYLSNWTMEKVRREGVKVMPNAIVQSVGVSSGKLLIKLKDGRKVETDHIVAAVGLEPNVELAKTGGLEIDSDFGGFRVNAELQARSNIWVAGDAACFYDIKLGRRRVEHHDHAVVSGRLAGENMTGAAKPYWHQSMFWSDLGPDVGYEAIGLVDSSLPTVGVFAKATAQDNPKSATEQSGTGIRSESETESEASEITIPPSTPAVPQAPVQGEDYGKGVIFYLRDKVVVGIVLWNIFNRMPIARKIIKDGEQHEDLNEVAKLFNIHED

T1 sequence (P62937 whole entry): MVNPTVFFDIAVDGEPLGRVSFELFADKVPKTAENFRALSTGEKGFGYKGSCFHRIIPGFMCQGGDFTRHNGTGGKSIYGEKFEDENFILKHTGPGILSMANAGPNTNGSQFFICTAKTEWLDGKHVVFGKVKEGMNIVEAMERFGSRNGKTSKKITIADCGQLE

Row | Binder | Kd [1] [µM] | other results
1 | B1 | 1.2 | –
2 | B2 | 147 | –
3 | B3 | 151 | –
4 | B4 | 13.6 | –
5 | B5 | – | Kd [2]: ~1 µM
6 | B6 | 58.9 | –
7 | B7 | 89.9 | –
8 | B8 | 233 | –
9 | B9 | 7.57 | –
10 | B10 | 37.6 | –
11 | B11 | 268 | –
12 | B12 | – | Kd [3]: ~5 µM; IC50 [4]: 5 µM
13 | B13 | 30.7 | –
14 | B14 | 23.9 | –
15 | B15 | 22.9 | –
16 | B16 | – | Kd [5]: ~0.8 µM
17 | B17 | – | Kd [6]: ~6 µM
18 | B18 | – | Kd [2]: ~2 µM
19 | B19 | 80.3 | –
